{"source": "patent US20170044515", "proteins": {"B1": {"name": "butelase 1 (active enzyme purified from pods of Clitoria ternatea) (protein)", "chain": "VEGTRWAVLVAGSKGYVNYRHQADVCHAYQILKKGGLKDENIIVFMYDDIAYNESNPHPGVIINHPYGSDVYKGVPKDYVGEDINPPNFYAVLLANKSALTGTGSGKVLDSGPNDHVFIYYTDHGGAGVLGMPSKPYIAASDLNDVLKKKHASGTYKSIVFYVESCESGSMFDGLLPEDHNIYVMGASDTGESSWVTYCPLQHPSPPPEYDVCVGDLFSVAWLEDCDVHNLQTETFQQQYEVVKNKTIVALIEDGTHVVQYGDVGLSKQTLFVYMGTDPANDNNTFTDKNSLGTPRKAVSQRDADLIHYWEKYRRAPEGSSRKAEAKKQLREVMAHRMHIDN"}, "B2": {"name": "Jack bean legumain (Takara Bio) (protein)", "chain": "EVGTRWAVLVAGSNGYGNYRHQADVCHAYQLLIKGGVKEENIVVFMYDDIAYNAMNPRPGVIINHPQGPDVYAGVPKDYTGEDVTPENLYAVILGDKSKVKGGSGKVINSNPEDRIFIFYSDHGGPGVLGMPNAPFVYAMDFIDVLKKKHASGGYKEMVIYIEACESGSIFEGIMPKDLNIYVTTASNAQENSFGTYCPGMNPPPPEEYVTCLGDLYSVSWMEDSETHNLKRETVQQQYQSVRKRTSNSNSYRFGSHVMQYGDTNITAEKLYLYHGFDPATVNFPPHNGNLEAKMEVVNQRDAELLFMWQMYQRSNHQPEKKTHILEQITETVKHRNHLDGSVELIGVLLYGPGKSSSVLHSVRAPGLPLVDDWTCLKSMVRVFETHCGSLTQYGMKHMRAFGNVCNSGVSKASMEEACKAACGGYDAGLLYPSNTGYSA"}}, "key": {"[1]": {"molecular_target": "T1, Apelin substrate (H. sapiens)", "T1 chain": "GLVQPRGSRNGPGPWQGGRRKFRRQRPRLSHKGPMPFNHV"}, "EV-9": {"molecular_target": "T2, EV-9", "T2 chain": "EINSTEINHV"}, "GV-10": {"molecular_target": "T3, GV-10", "T3 chain": "GLPPPIFNHV"}, "[2]": {"molecular_target": "T4, Galanin substrate (H. sapiens)", "T4 chain": "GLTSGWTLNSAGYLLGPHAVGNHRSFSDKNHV"}, "HV-10": {"molecular_target": "T5, HV-10", "T5 chain": "HLPPPIFNHV"}, "Histatin-1a": {"molecular_target": "T6, Histatin-1a", "T6 chain": "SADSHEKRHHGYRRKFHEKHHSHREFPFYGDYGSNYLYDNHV"}, "Histatin-1b": {"molecular_target": "T7, Histatin-1b", "T7 chain": "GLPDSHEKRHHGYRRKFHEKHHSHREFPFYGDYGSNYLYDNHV"}, "Histatin-3a": {"molecular_target": "T8, Histatin-3a", "T8 chain": "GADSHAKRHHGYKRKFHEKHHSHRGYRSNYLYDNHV"}, "Histatin-3b": {"molecular_target": "T9, Histatin-3b", "T9 chain": "T8 chain with A2L"}, "[3]": {"molecular_target": "T10, Neuromedin U substrate (H. sapiens)", "T10 chain": "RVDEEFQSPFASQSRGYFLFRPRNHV"}, "RV-10": {"molecular_target": "T11, RV-10", "T11 chain": "RVTRPVNHV"}, "[4]": {"molecular_target": "T12, Rat neuromedin U substrate", "T12 chain": "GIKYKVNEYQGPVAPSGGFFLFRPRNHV"}, "SA-kB1-NHV": {"molecular_target": "T13, SA-kB1-NHV", "T13 chain": "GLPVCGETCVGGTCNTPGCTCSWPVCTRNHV"}, "SFTI-DHV": {"molecular_target": "T14, SFTI-DHV", "T14 chain": "GRCTKSIPPICFPDHV"}, "SFTI-NHV": {"molecular_target": "T15, SFTI-NHV", "T15 chain": "GRCTKSIPPICFPNHV"}, "SV-10": {"molecular_target": "T16, SV-10", "T16 chain": "SLPPPIFNHV"}, "[5]": {"molecular_target": "T17, Salusin substrate (H. sapiens)", "T17 chain": "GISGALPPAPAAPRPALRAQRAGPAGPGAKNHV"}, "Thanatin analog": {"molecular_target": "T18, Thanatin analog", "T18 chain": "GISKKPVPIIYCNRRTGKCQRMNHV"}, "kB1-AHV": {"molecular_target": "T19, kB1-AHV (not fully specified)", "T19 chain": "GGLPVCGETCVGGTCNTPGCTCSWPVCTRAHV"}, "kB1-DHV": {"molecular_target": "T20, kB1-DHV (not fully specified)", "T20 chain": "T19 chain with A30D"}, "kB1-EHV": {"molecular_target": "T21, kB1-EHV (not fully specified)", "T21 chain": "T19 chain with A30E"}, "kB1-N*": {"molecular_target": "T22, kB1-N* (not fully specified)", "T22 chain": "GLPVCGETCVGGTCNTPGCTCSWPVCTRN"}, "kB1-NH": {"molecular_target": "T23, kB1-NH (not fully specified)", "T23 chain": "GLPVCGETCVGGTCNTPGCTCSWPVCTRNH"}, "kB1-NHV": {"molecular_target": "T24, kB1-NHV (not fully specified)", "T24 chain": "T13 chain"}, "kB1-NHVIA": {"molecular_target": "T25, kB1-NHVIA (not fully specified)", "T25 chain": "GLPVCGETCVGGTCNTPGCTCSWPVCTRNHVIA"}, "kB1-NHVI": {"molecular_target": "T26, kB1-NHVI (not fully specified)", "T26 chain": "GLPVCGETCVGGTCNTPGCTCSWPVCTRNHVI"}, "kB1-QHV": {"molecular_target": "T27, kB1-QHV (not fully specified)", "T27 chain": "T19 chain with A30Q"}, "[6]": {"molecular_target": "modified GFP ending with Asn-His-Val at the C-terminus and starting with Gly-Ile at the N-terminus"}}, "note": "Substitutions are numbered along the chain they refer to.", "data": [{"protein": "B1", "values": [{"measurement": "Km", "setting": "[1]", "result": 6.7, "unit": "µM"}, {"measurement": "cyclization yield within 5 min", "setting": "[1]", "result": "butelase 1 achieved >95% cyclization yields within 5 min for all peptides tested"}, {"measurement": "kcat", "setting": "[1]", "result": 5.78, "unit": "s⁻¹"}, {"measurement": "kcat/Km", "setting": "[1]", "result": 859000, "unit": "M^-1 S^-1"}, {"measurement": "Yield (%) of dimerization and cyclization, products Cyclo([..]), [..]", "setting": "EV-9", "result": 20, "unit": "%"}, {"measurement": "Yield (%) of dimerization and cyclization, product Cyclo([..])2", "setting": "GV-10", "result": 50, "unit": "%"}, {"measurement": "Km", "setting": "[2]", "result": 34.2, "unit": "µM"}, {"measurement": "cyclization yield within 5 min", "setting": "[2]", "result": "butelase 1 achieved >95% cyclization yields within 5 min for all peptides tested"}, {"measurement": "kcat", "setting": "[2]", "result": 3.54, "unit": "s⁻¹"}, {"measurement": "kcat/Km", "setting": "[2]", "result": 103000, "unit": "M^-1 S^-1"}, {"measurement": "Yield (%) of dimerization and cyclization, product Cyclo([..])2", "setting": "HV-10", "result": 50, "unit": "%"}, {"measurement": "Yield (%) of cyclization", "setting": "Histatin-1a", "result": 90, "unit": "%"}, {"measurement": "Yield (%) of cyclization", "setting": "Histatin-1b", "result": 90, "unit": "%"}, {"measurement": "Yield (%) of cyclization", "setting": "Histatin-3a", "result": 90, "unit": "%"}, {"measurement": "Yield (%) of cyclization", "setting": "Histatin-3b", "result": 90, "unit": "%"}, {"measurement": "Km", "setting": "MrIA conotoxin substrate", "result": 7.9, "unit": "µM"}, {"measurement": "Yield (%) of cyclization", "setting": "MrIA conotoxin substrate", "result": 95, "unit": "%"}, {"measurement": "kcat", "setting": "MrIA conotoxin substrate", "result": 2.2, "unit": "s⁻¹"}, {"measurement": "kcat/Km", "setting": "MrIA conotoxin substrate", "result": 278000, "unit": "M⁻¹ s⁻¹"}, {"measurement": "Km", "setting": "[3]", "result": 8.7, "unit": "µM"}, {"measurement": "cyclization yield within 5 min", "setting": "[3]", "result": "butelase 1 achieved >95% cyclization yields within 5 min for all peptides tested"}, {"measurement": "kcat", "setting": "[3]", "result": 5.78, "unit": "s⁻¹"}, {"measurement": "kcat/Km", "setting": "[3]", "result": 664000, "unit": "M^-1 S^-1"}, {"measurement": "Yield (%) of dimerization and cyclization, products Cyclo(RVTRPVN), Cyclo(RVTRPVN)2", "setting": "RV-10", "result": 20, "unit": "%"}, {"measurement": "Km", "setting": "[4]", "result": 20.2, "unit": "µM"}, {"measurement": "cyclization yield within 5 min", "setting": "[4]", "result": "butelase 1 achieved >95% cyclization yields within 5 min for all peptides tested"}, {"measurement": "kcat", "setting": "[4]", "result": 26.6, "unit": "s⁻¹"}, {"measurement": "kcat/Km", "setting": "[4]", "result": "1.31e+06", "unit": "M^-1 S^-1"}, {"measurement": "Cyclization yield (%) at 0.2 h", "setting": "SA-kB1-NHV", "result": "> 95", "unit": "%"}, {"measurement": "Km", "setting": "SA-kB1-NHV", "result": 31.5, "unit": "µM"}, {"measurement": "fold change of catalytic efficiency against kB1-NHV", "setting": "SA-kB1-NHV", "result": "a 50-fold improvement in the catalytic efficiency of SA-kB1-NHV compared to kB1-NHV"}, {"measurement": "kcat", "setting": "SA-kB1-NHV", "result": 17.1, "unit": "s⁻¹"}, {"measurement": "kcat/Km", "setting": "SA-kB1-NHV", "result": 542000, "unit": "M⁻¹ s⁻¹"}, {"measurement": "Cyclization yield (%) at 4 h", "setting": "SFTI-DHV", "result": "< 10", "unit": "%"}, {"measurement": "Cyclization yield (%) at 0.8 h", "setting": "SFTI-NHV", "result": "> 95", "unit": "%"}, {"measurement": "Km", "setting": "SFTI-NHV", "result": 51, "unit": "µM"}, {"measurement": "catalytic efficiency (kcat/Km)", "setting": "SFTI-NHV", "result": "catalytic efficiency of 11,700 M^-1 s^-1"}, {"measurement": "kcat", "setting": "SFTI-NHV", "result": 0.6, "unit": "s⁻¹"}, {"measurement": "kcat/Km", "setting": "SFTI-NHV", "result": 10700, "unit": "M⁻¹ s⁻¹"}, {"measurement": "Yield (%) of dimerization and cyclization, product Cyclo([..])2", "setting": "SV-10", "result": 50, "unit": "%"}, {"measurement": "cyclization yield within 5 min", "setting": "[5]", "result": "butelase 1 achieved >95% cyclization yields within 5 min for all peptides tested"}, {"measurement": "Yield (%) of cyclization", "setting": "Thanatin analog", "result": 95, "unit": "%"}, {"measurement": "Cyclization yield (%) at 4 h", "setting": "kB1-AHV", "result": "< 1", "unit": "%"}, {"measurement": "cyclization after 4 h (MS)", "setting": "kB1-AHV", "result": "No cyclization of kB1-AHV, kB1-QHV or kB1-EHV was observed after incubating with butelase 1 for 4 h"}, {"measurement": "Cyclization yield (%) at 4 h", "setting": "kB1-DHV", "result": "< 10", "unit": "%"}, {"measurement": "cyclization rate against kB1-NHV", "setting": "kB1-DHV", "result": "at about a hundred-fold slower than kB1-NHV"}, {"measurement": "Cyclization yield (%) at 4 h", "setting": "kB1-EHV", "result": "< 1", "unit": "%"}, {"measurement": "cyclization after 4 h (MS)", "setting": "kB1-EHV", "result": "No cyclization of kB1-AHV, kB1-QHV or kB1-EHV was observed after incubating with butelase 1 for 4 h"}, {"measurement": "Cyclization yield (%) at 4 h", "setting": "kB1-N*", "result": "< 10", "unit": "%"}, {"measurement": "Cyclization yield (%) at 4 h", "setting": "kB1-NH", "result": "< 5", "unit": "%"}, {"measurement": "Cyclization yield (%) at 0.8 h", "setting": "kB1-NHV", "result": "> 95", "unit": "%"}, {"measurement": "Km", "setting": "kB1-NHV", "result": 213, "unit": "µM"}, {"measurement": "conversion into cyclic kB1 within 6 min (RP-HPLC)", "setting": "kB1-NHV", "result": "converted about 40% of kB1-NHV into cyclic kB1 within 6 min"}, {"measurement": "kcat", "setting": "kB1-NHV", "result": 2.28, "unit": "s⁻¹"}, {"measurement": "kcat/Km", "setting": "kB1-NHV", "result": 10700, "unit": "M⁻¹ s⁻¹"}, {"measurement": "Cyclization yield (%) at 3 h", "setting": "kB1-NHVIA", "result": "> 95", "unit": "%"}, {"measurement": "Km", "setting": "kB1-NHVIA", "result": 129, "unit": "µM"}, {"measurement": "kcat", "setting": "kB1-NHVIA", "result": 0.38, "unit": "s⁻¹"}, {"measurement": "kcat/Km", "setting": "kB1-NHVIA", "result": 2970, "unit": "M⁻¹ s⁻¹"}, {"measurement": "Cyclization yield (%) at 2 h", "setting": "kB1-NHVI", "result": "> 95", "unit": "%"}, {"measurement": "Km", "setting": "kB1-NHVI", "result": 62, "unit": "µM"}, {"measurement": "kcat", "setting": "kB1-NHVI", "result": 0.25, "unit": "s⁻¹"}, {"measurement": "kcat/Km", "setting": "kB1-NHVI", "result": 4030, "unit": "M⁻¹ s⁻¹"}, {"measurement": "Cyclization yield (%) at 4 h", "setting": "kB1-QHV", "result": "< 1", "unit": "%"}, {"measurement": "cyclization after 4 h (MS)", "setting": "kB1-QHV", "result": "No cyclization of kB1-AHV, kB1-QHV or kB1-EHV was observed after incubating with butelase 1 for 4 h"}, {"measurement": "cyclization yield within 15 min (SDS page, ESI-MS)", "setting": "[6]", "result": "The cyclization reaction completed within 15 min with >90% yield"}]}, {"protein": "B2", "values": [{"measurement": "hydrolysis or cyclization of kB1-NHV (MS)", "setting": "kB1-NHV", "result": "commercial jack bean legumain was unable to cyclize kB1-NHV and generated only the linear form of kB1"}]}]}
